Measurements published in patent publication US20180000768A1, “INTESTINAL FXR AGONISM ENHANCES GLP-1 SIGNALING TO RESTORE PANCREATIC BETA CELL FUNCTIONS” (Salk Institute for Biological Studies, priority 2015, published 2018).

Columns and labels:
[1] = tested on: isolated islets; assay: gene expression after direct ex vivo treatment of isolated islets; type: cell-based, mouse; conditions: 24 hours ex vivo, XL335 1 μM, Fex 1 μM
Method: Leptin-deficient ob/ob mice were treated daily with vehicle, Fex, or the analogue Fex-D (50 mg/kg) via P.O. for 14 days (A) Chemical structures of fexaramine and Fex-D (B) Schematic of the experimental design (C) Serum glucose levels (D) Glucose tolerance test (E) Insulin secretion in vivo (F) GLP-1 secretion in vivo (G) Heatmap showing hierarchal clustering of gene expression changes in islet induced by Fex (100 mg/kg, 4 wks) and FexD (50 mg/kg, 2 weeks) treatment in ob/ob mice (in vivo); by treatment of islets with XL335 (1 μM), Fex (1 μM), mFgf15 and hFgf19 (24 hours ex vivo); and mFgf15 (0.15 mg/kg, 2 weeks) and INT777 (Tgr5, 60 mg/kg, 4 weeks) treatment of ob/ob mice (in vivo). Gene expression was measured by RNA-Seq and changes are expressed as Z-score. (H) Ven diagram of changes in gene expression in pancreatic islets induced by FEX (100 mg/kg for 5 weeks) and FEX-D (50 mg/kg for 14 days). […] Data represent the mean±STD. Statistical analysis was performed with the Student's t test. *p<0.05, **p<0.01.
Next, primary islets were isolated from mice treated by Fex-D to compare gene expression changes.

[2] = tested on: ob/ob mice; assay: gene expression (RNA-Seq, QPCR) in tissues of treated ob/ob mice; type: in vivo, mouse; conditions: FGF15 injection
Method: Total RNA was isolated from cell pellets treated with RNAlater using the RNA mini kit (Qiagen) and treated with DNaseI (Qiagen) for 30 minutes at room temperature. Sequencing libraries were prepared from 100-500 ng total RNA using the TruSeq RNA Sample Preparation Kit v2 (Illumina) according to the manufacturer's protocol. Briefly, mRNA was purified, fragmented, and used for first-, then second-strand cDNA synthesis followed by adenylation of 3′ ends. Samples were ligated to unique adapters and subjected to PCR amplification. Mulitplexed libraries were then validated using the 2100 BioAnalyzer (Agilent), normalized, and pooled for sequencing. RNA-Seq libraries prepared from two biological replicates for each experimental condition were sequenced on the Illumina HiSeq 2500 using bar-coded multiplexing and a 100 bp read length.
Image analysis and base calling were performed with Illumina CASAVA-1.8.2. This yielded a median of 29.9M usable reads per sample. Short read sequences were mapped to a UCSC mm9 reference sequence using the RNA-seq aligner STAR. Known splice junctions from mm9 were supplied to the aligner and de novo junction discovery was also permitted. […] Transcript expression was calculated as gene-level relative abundance in fragments per kilobase of exon model per million mapped fragments and employed correction for transcript abundance bias. […]

[3] = tested on: Leptin-deficient ob/ob mice; assay: metabolic phenotype and glucose homeostasis of treated ob/ob mice; type: in vivo, mouse; conditions: FGF15 treatment for 2 weeks
Method: Leptin-deficient ob/ob mice were purchased from Jackson laboratory (stock no. 000632). Each mouse consumed 100 mg per kg of body weight Fex (in corn oil) per day by oral gavage for 5 weeks. For in vivo analog study, each mouse consumed 50 mg per kg of body weight Fex-D (in corn oil) per day by oral gavage for 14 days. For GLP-1 receptor antagonist study, each mouse was daily treated with 100 μg per kg of body weight Exendin 9-39 amide (Abcam) via intraperitoneal injection for 2 weeks. For INT-777 study, each mouse was daily gavaged with 60 mg per kg of body weight INT-777 (in corn oil) for 5 weeks. […] Core body temperature was measured with a clinical rectal thermometer (Thermalert model TH-5; Physitemp). […] Tail blood was drawn at indicated time intervals, and blood glucose level was measured with a One Touch Ultra glucometer (LifeScan). Body composition was measured with Echo MRI-100 body composition analyzer (Echo Medical Systems). […]
Real-time metabolic analyses were conducted in a Comprehensive Lab Animal Monitoring System (Columbus Instruments). CO2 production, O2 consumption, RQ (relative rates of carbohydrate versus fat oxidation) and ambulatory counts were determined for 4 consecutive days and nights, with at least 24-h for adaptation before data recording. […]

B1: FGF15: FGF15 protein injected in ob/ob mice or applied to islets (protein, UniProt O35622 26-218, looked up)
Fibroblast growth factor 15: RPLAQQSQSVSDEDPLFLYGWGKITRLQYLYSAGPYVSNCFLRIRSDGSVDCEEDQNERNLLEFRAVALKTIAIKDVSSVRYLCMSADGKIYGLIRYSEEDCTFREEMDCLGYNQYRSMKHHLHIIFIQAKPREQLQDQKPSNFIPVFHRSFFETGDQLRSKMFSLPLESDSMDPFRMVEDVDHLVKSPSFQK
For B1, the “transcriptional changes seen in islets in vivo with Fex and Fex-D” value [1] was “not observed”, the “reg family gene expression in islets” value [2] was “upregulated” and the blood glucose levels [3] was “significantly reduced”. For the same molecule, the “glucose uptake in the skeletal muscle” value ([3]; soleus) was “without affecting”.
